{"source": "paper PMC3558457", "molecular_target": "IL-4 receptor α (IL-4Rα) (UniProt P24394)", "sequence (P24394 26-825)": "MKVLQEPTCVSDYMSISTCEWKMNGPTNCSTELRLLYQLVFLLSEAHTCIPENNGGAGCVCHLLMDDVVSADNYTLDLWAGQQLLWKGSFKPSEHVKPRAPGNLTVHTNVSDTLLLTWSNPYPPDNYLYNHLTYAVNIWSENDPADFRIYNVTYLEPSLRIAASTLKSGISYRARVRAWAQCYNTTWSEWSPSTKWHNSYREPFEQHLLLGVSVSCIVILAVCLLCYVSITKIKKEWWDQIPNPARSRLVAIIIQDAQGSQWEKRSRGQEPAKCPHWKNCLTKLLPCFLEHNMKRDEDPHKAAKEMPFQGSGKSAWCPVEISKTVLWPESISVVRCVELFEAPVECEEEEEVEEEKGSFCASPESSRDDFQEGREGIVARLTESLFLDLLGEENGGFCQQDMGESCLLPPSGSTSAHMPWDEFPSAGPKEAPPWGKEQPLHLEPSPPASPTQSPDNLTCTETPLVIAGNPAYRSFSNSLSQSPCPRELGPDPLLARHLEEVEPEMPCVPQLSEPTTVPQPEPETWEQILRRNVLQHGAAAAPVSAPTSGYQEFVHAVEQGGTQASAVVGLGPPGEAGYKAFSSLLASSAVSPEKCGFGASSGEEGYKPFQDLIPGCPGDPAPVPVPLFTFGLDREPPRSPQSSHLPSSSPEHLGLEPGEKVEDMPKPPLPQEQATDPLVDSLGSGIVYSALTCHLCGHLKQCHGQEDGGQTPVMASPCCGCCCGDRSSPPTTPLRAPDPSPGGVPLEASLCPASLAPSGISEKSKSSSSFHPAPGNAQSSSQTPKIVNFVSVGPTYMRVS"}
{"substance": "Wildtype human IL-4 (from UniProt P05112 25-153) (ligand)", "values": [{"measurement": "TF-1 cell proliferation, dose dependency for wild-type human IL-4 (EC50)", "result": "0.01 to 0.02", "unit": "nM"}]}
